This note sets out measurements from the Immune Epitope Database (IEDB).

The target in one experiment is HLA-A*02:06. As to the kind of experiment: IEDB peptide-MHC binding, purified MHC/competitive/radioactivity; filed as Kd, often an IC50 or EC50 that approximates it; ≥ and ≤ were set here for values at or beyond the usual limits of such assays. Particulars: source organism: Dengue virus 2 Jamaica/1409/1983.
The target of another experiment is HLA-A*30:01. The description is as above.
For experiment [1], the target named is HLA-A*02:01. Briefly: IEDB peptide-MHC binding, purified MHC/competitive/fluorescence; ≥ and ≤ were set here for values at or beyond the usual limits of such assays.
Experiment [2] addresses HLA-A*02:01. As to the kind of experiment: IEDB peptide-MHC binding, purified MHC/competitive/radioactivity; filed as Kd, often an IC50 or EC50 that approximates it; ≥ and ≤ were set here for values at or beyond the usual limits of such assays.
The target of experiment [3] is HLA-A*24:02. Briefly: IEDB peptide-MHC binding, purified MHC/competitive/fluorescence; ≥ and ≤ were set here for values at or beyond the usual limits of such assays.
Experiment [4] concerns the target HLA-A*02:01. As to the kind of experiment: IEDB peptide-MHC binding, purified MHC/direct/fluorescence; filed as Kd, often an IC50 or EC50 that approximates it; ≥ and ≤ were set here for values at or beyond the usual limits of such assays. The conditions noted are these: source organism: SARS-CoV1.
The target of another experiment is HLA-A*31:01. Described as above. The conditions noted are these: source organism: SARS-CoV1.
Another experiment concerns the target HLA-A*69:01. Described as above. The conditions noted are these: source organism: SARS-CoV1.
A further experiment deals with HLA-B*15:01. The description is as above. Particulars: source organism: SARS-CoV1.
Another experiment deals with HLA-B*27:05. The description is as above. Particulars: source organism: SARS-CoV1.
A further experiment concerns the target HLA-A*33:01. As to the kind of experiment: IEDB peptide-MHC binding, purified MHC/competitive/radioactivity; filed as Kd, often an IC50 or EC50 that approximates it; ≥ and ≤ were set here for values at or beyond the usual limits of such assays. The conditions noted are these: source organism: SARS coronavirus Tor2.
For the next experiment, the target named is HLA-A*68:01. The description is as above. Particulars: source organism: SARS coronavirus Tor2.
The target in a further experiment is HLA-A*23:01. Described as above.
Experiment [5] deals with HLA-A*24:02. The description is as above.
Experiment [6] concerns the target HLA-A*26:01. The description is as above.
The target of the next experiment is HLA-B*44:02. The description is as above.
Another experiment deals with HLA-A*30:02. Described as above. Particulars: source organism: Dengue virus 4 Philippines/H241/1956.
In the next experiment the target is HLA-A*02:03. The description is as above. Particulars: source organism: Homo sapiens.
Experiment [7] has as its target HLA-A*26:01. As to the kind of experiment: IEDB peptide-MHC binding, purified MHC/direct/fluorescence; filed as Kd, often an IC50 or EC50 that approximates it; ≥ and ≤ were set here for values at or beyond the usual limits of such assays. Particulars: source organism: Bacillus cereus AH1134.
In the next experiment the target is HLA-B*51:01. Briefly: IEDB peptide-MHC binding, purified MHC/competitive/radioactivity; filed as Kd, often an IC50 or EC50 that approximates it; ≥ and ≤ were set here for values at or beyond the usual limits of such assays. The conditions noted are these: source organism: Dengue virus 1 Singapore/S275/1990.
Setting [8] is: source organism: Dengue virus 2 Jamaica/1409/1983.
Setting [9] is: source organism: Vaccinia virus WR.
[10] abbreviates: source organism: Human alphaherpesvirus 1 strain 17.
[11] abbreviates: source organism: Vaccinia virus Copenhagen.
[12] abbreviates: source organism: Zaire ebolavirus.
Where [13] appears, read: source organism: Dengue virus 4 Philippines/H241/1956.
Where [14] appears, read: source organism: Sudan ebolavirus.
[15] abbreviates: source organism: Dengue virus 1 Brazil/97-11/1997.
The mark [16] stands for this setting: source organism: Dengue virus 4 Thailand/0348/1991.

On to RTLRVLNLV, for which the equilibrium dissociation constant (Kd) (in general, the equilibrium constant for the complex coming apart) with HLA-A*02:06 was 10.2 nM; with HLA-A*30:01 (setting [8]) it was 222 nM.

Regarding RTKITSLPL, in the experiment with HLA-A*30:01 (setting [9]), the Kd amounted to 0.0866 nM.

For ALLEDPVGT, the half-inhibitory concentration (IC50) (in general, the concentration needed to halve the response being measured) with HLA-A*02:01 [1] (setting [10]) worked out at 28 nM.

In the case of VLLGVKLSGV, the dissociation constant (Kd) in the experiment with HLA-A*02:01 [2] (source organism: Homo sapiens) was found to be 4.7 nM.

With SSQMTSTFI, the figures for the half-maximal inhibitory concentration (IC50) in the experiment with HLA-A*02:01 [1] (setting [11]) and with HLA-A*24:02 [3] (setting [11]) were at least 72600 nM and at least 70900 nM, respectively.

KLFAAETLK: the dissociation constant Kd with HLA-A*02:01 [4] is at least 29200 nM; with HLA-A*31:01, 173 nM; in the experiment with HLA-A*69:01 it was 15900 nM; with HLA-B*15:01, at least 21300 nM; with HLA-B*27:05, 2180 nM; in the experiment with HLA-A*33:01, 13600 nM. Besides, the Kd with HLA-A*68:01 came to 399 nM.

For NWLNNNTQF, the Kd was 716 nM with HLA-A*23:01 (setting [8]) and 88 nM with HLA-A*24:02 [5] (setting [8]).

Regarding CLEKVQRQI, the concentration for half-maximal inhibition (IC50) with HLA-A*02:01 [1] (setting [12]) turned out to be 21900 nM.

On to ELMMATIGIA, for which, in the experiment with HLA-A*26:01 [6] (setting [8]), the equilibrium dissociation constant (Kd) was 65 nM.

Take NEMILLTMK: the equilibrium dissociation constant (Kd) with HLA-B*44:02 (source organism: Dengue virus 3 Martinique/1243/1999) came out at 824 nM.

In turn, PVYQVNNLE gave an IC50 with HLA-A*24:02 [3] (setting [12]) of at least 100000 nM.

For EKTKTDFGFY, the Kd with HLA-A*26:01 [6] (setting [13]) was 9240 nM; with HLA-A*30:02 it was 20.1 nM.

As for WLVSNGSYL, the Kd in the experiment with HLA-A*02:01 [2] (source organism: Lassa virus Josiah) came out at 1790 nM.

The sequence HLHQQLSNT had a concentration for half-maximal inhibition (IC50) in the experiment with HLA-A*02:01 [1] (setting [14]) of 15000 nM.

For KAKTTISNY, the dissociation constant (Kd) with HLA-A*30:01 (setting [9]) came to 24.3 nM.

For YWPVMNHKN, the concentration for half-maximal inhibition (IC50) in the experiment with HLA-A*24:02 [3] (setting [12]) amounted to 7120 nM. This counts as single-digit micromolar.

With HTIENTSAN, the Kd with HLA-A*26:01 [6] (setting [13]) was 4840 nM.

On to NLLTTPKFT, for which, in the experiment with HLA-A*02:01 [2] (setting [10]), the dissociation constant (Kd) worked out at 500 nM.

On to QREIFSAWI, for which, in the experiment with HLA-A*24:02 [3] (source organism: Variola virus), the half-maximal inhibitory concentration (IC50) is at least 76300 nM.

In the case of TSFFLWVII, the figures for the IC50 with HLA-A*02:01 [1] (setting [12]) and with HLA-A*24:02 [3] (setting [12]) were at least 503000 nM and at least 131000 nM, respectively.

ALPHAILRL: the Kd with HLA-A*02:01 [2] (source organism: Homo sapiens) came out at 128 nM; with HLA-A*02:03 it was 7.87 nM.

On to SYLAGAGLLF, for which the Kd with HLA-A*23:01 (setting [8]) came to 0.709 nM; with HLA-A*24:02 [5] (setting [8]), 6.22 nM.

As for FQESADSFL, the half-maximal inhibitory concentration (IC50) with HLA-A*02:01 [1] (setting [12]) stood at 14000 nM. This counts as double-digit micromolar.

Consider EERDIPERSW, for which, in the experiment with HLA-B*44:02 (setting [15]), the dissociation constant Kd turned out to be 72.4 nM.

In the experiment with HLA-A*24:02 [3] (setting [14]), DKFRKSSFF returned a 50% inhibitory concentration (IC50) of 52200 nM.

SGVLWDTPSP: the Kd with HLA-A*30:01 (setting [15]) is at least 70400 nM.

As to YIGEVLVSV, the half-inhibitory concentration (IC50) with HLA-A*02:01 [1] (source organism: Homo sapiens) worked out at 10 nM. This counts as double-digit nanomolar.

Take IVRDSMWYI: the Kd in the experiment with HLA-A*30:01 (setting [11]) is 19.7 nM.

Regarding LWVAEIQPQW, the dissociation constant Kd with HLA-A*23:01 (setting [13]) was 1380 nM; with HLA-A*24:02 [5] (setting [13]), 312 nM.

LCRTSCLQK: the dissociation constant (Kd) with HLA-A*30:01 (setting [13]) amounted to 1350 nM.

With TTRDKLFNK, the equilibrium dissociation constant (Kd) in the experiment with HLA-A*30:01 (setting [9]) came out at 123 nM.

As for PLEEELPR, the Kd with HLA-A*02:01 [2] (source organism: Hepatitis B virus) was at least 25000 nM.

Sequence SVGGVFTSV had an IC50 with HLA-A*02:01 [1] (source organism: West Nile virus NY-99) of 247 nM.

As for RYVHKVSGT, the 50% inhibitory concentration (IC50) with HLA-A*02:01 [1] (setting [12]) was at least 90900 nM; with HLA-A*24:02 [3] (setting [12]), 6660 nM.

For VWIEDNPNMI, the Kd was found to be 472 nM in the experiment with HLA-A*23:01 (setting [16]) and 546 nM in the experiment with HLA-A*24:02 [5] (setting [16]).

As to YLFNWAVRT, the IC50 with HLA-A*02:01 [1] (source organism: Hepatitis C virus genotype 1) was 5000 nM. This counts as single-digit micromolar.

In the case of ISRSRRLFA, in the experiment with HLA-A*30:01 (setting [9]), the dissociation constant (Kd) was 2.23 nM.

Turning to EVADRILFM, the dissociation constant Kd with HLA-A*26:01 [7] came out at 3 nM.

Turning to AVPSHWVPTS, the Kd in the experiment with HLA-A*30:01 (setting [8]) was found to be 15000 nM.

As to MFLIAENKI, the Kd is 913 nM with HLA-A*23:01 (source organism: Dengue virus 1 Singapore/S275/1990) and 2760 nM with HLA-B*51:01.
